In assay [1] the target is T1, human LAG-3-his (human, UniProt P18627 23-422).
T1 construct: range 23-422; also called hLAG-3-his; hLAG-3
T1 sequence: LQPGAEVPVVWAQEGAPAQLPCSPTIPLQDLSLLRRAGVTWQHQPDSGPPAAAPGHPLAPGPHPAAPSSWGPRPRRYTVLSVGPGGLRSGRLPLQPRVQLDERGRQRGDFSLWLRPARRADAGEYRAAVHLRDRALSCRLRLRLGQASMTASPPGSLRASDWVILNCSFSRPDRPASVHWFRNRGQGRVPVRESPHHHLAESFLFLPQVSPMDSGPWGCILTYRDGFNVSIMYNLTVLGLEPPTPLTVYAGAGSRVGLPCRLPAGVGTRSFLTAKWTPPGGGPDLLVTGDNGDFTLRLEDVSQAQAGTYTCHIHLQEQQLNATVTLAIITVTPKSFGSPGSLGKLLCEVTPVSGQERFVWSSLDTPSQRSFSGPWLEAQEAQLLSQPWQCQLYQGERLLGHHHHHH
Briefly: ELISA on hLAG-3. The protocol: (§1) After discarding the liquid, a blocking solution of 5% skimmed milk (Bright skimmed milk powder) diluted with PBS was added at 230 μl per well, followed by incubating at 37° C. for 3 hours or 4° C. overnight (16-18 hours) for blocking. Subsequently, the blocking solution was discarded, and the micropiate was washed 5 times with PBST buffer (pH 7.4 PBS containing 0.05% tweeen-20). Then 50 μl/well of the supernatant (containing the antibody to be tested) or a starting concentration of 10 μg/ml of the antibody to be tested, which was diluted 5 times in gradient, was added, followed by incubating the mixture for 1 hour at 37° C. […] After washing the microplate 5 times with PBST, 50 μl/well TIMB chromogenic substrate (KPL, Cat. No.: 52-00-03) was added, and then incubated for […] at room temperature. Finally, 50 μl/well of 1 M H₂SO₄ was added to stop the reaction. The absorbance value at 450 nm was read by […] GO microplate reader (ThermoFisher, Cat. No.: 51119200). The clones with high affinity were selected according to the OD value or the EC₅₀ value was calculated (for antibodies with known concentrations).
In general terms: In an ELISA, binding on a coated surface is turned into a signal by an enzyme label.

The target of assay [2] is T1, human LAG-3-his. The assay can be described thus: ELISA on human LAG-3, same experiment.
Assay [3] addresses T1, human LAG-3-his. Briefly: ELISA. The protocol: as §1
The target of assay [4] is T2, murine LAG-3 his tagged (mLAG-3-his) (mouse, UniProt Q61790 23-406).
T2 construct: range 23-406; also called mouse LAG-3
T2 sequence: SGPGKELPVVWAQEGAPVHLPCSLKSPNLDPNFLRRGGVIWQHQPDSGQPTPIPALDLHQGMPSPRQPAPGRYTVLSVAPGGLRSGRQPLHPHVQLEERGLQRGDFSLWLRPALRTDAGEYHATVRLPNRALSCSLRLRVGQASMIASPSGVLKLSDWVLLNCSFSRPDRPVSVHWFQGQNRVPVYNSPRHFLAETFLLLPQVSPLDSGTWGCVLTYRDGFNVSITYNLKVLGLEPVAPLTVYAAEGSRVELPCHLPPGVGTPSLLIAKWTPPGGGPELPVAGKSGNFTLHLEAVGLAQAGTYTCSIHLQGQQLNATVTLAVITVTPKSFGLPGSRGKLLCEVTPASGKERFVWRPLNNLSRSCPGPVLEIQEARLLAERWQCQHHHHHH
The assay can be described thus: ELISA. The protocol:
as §1

The target of assay [5] is T3, hLAG-3-D12-his (human, UniProt P18627 23-239).
T3 construct: range 23-239
T3 sequence: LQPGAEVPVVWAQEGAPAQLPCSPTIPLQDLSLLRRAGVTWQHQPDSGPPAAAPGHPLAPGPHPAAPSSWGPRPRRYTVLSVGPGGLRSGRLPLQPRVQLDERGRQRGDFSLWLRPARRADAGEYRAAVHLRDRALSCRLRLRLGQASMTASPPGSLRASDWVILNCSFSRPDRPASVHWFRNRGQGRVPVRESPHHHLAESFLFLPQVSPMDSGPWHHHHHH
Briefly: ELISA. The procedure: as §1

For assay [6], the target named is T4, hLAG-3-D12-hFc (human, UniProt P18627 23-239).
T4 construct: range 23-239
T4 sequence (looked up): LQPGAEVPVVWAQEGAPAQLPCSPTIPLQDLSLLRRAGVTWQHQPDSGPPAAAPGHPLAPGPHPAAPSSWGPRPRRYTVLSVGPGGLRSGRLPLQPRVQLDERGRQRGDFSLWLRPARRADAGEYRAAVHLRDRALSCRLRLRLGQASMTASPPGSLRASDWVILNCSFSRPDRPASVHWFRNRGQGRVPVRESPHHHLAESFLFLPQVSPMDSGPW
Briefly: ELISA. The procedure:
as §1

The target in assay [7] is T5, human LAG-3-hFc (human, UniProt P18627 23-422).
T5 construct: range 23-422; also called hLAG-3-hFc
T5 sequence (looked up): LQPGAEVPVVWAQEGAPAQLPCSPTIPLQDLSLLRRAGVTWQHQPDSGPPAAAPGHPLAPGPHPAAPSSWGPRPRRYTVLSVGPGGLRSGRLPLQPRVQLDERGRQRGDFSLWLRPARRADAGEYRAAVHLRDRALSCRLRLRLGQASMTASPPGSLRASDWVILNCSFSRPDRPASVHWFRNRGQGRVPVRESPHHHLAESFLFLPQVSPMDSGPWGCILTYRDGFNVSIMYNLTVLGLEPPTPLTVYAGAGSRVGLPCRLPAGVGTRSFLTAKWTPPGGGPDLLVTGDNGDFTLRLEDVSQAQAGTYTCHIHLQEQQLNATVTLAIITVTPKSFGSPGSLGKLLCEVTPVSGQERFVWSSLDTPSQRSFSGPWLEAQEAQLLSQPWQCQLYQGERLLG
Briefly: ELISA. The protocol: as §1

The target of assay [8] is T6, cyno-LAG3-hFc (cynomolgus monkey).
T6 construct: Bought product; also called cynomolgus monkey LAG-3
The assay can be described thus: ELISA. The protocol: as §1

Experimental findings from patent US20220340657A1 (L AND L BIO CO LTD NINGBO CHINA, published 2022) are described below.

Usually EC50 stands for the midpoint of the concentration-response curve. Read a low EC50 as higher potency in that assay.

Positions count from the first letter of the chain named. Several values for one entry are separate records, joined by “and”; a condition that tells them apart may be missing. Equal entries are not always repeated.

B1: humanized anti-human LAG-3 antibody Ab2317 (antibody, human IgG4 S228P, kappa, V domains shown)
VH: QVQLVQSGAEVKKPGASVKVSCKASGYTFTDYEMHWVKQAPGQGLEWIGGIDPETEGIAYNQKFRGRATLTADKSTSTAYMELRSLRSDDTAVYYCTNSNYYGGREAWFAYWGQGTLVTVSS
VL: DIQMTQSPSSLSASVGDRVTITCRASQDIGSSLNWYQQKPGKAPKRLIYATSSLDSGVPSRFSGSRSGSDFTLTISSLQPEDFATYYCLQYVTSPLTFGGGTKVEIKR
notes: LG2317 / LG2343, human kappa / hIgG4
As to B1, the EC50 is 0.119 nM in assay [1]; 0.287 nM and 0.579 nM and 0.44 nM in assay [2]; 0.16 nM in assay [3]; 1.71 nM in assay [5]; 2.59 nM in assay [6]; 0.25 nM in assay [7]. Also, in assay [8], the midpoint of the response, the EC50, lay at 40.2 nM. In assay [4], the binding result is “no binding”.

B2: humanized antibody Ab2325 (antibody, human IgG4 S228P, kappa, V domains shown)
VH: B1 VH with I48M, L70M, A72T, K74T, T97A
VL: B1 VL
notes: LG2317 / LG2348, human kappa / hIgG4
Consider B2, for which the EC50 in assay [1] is 0.142 nM; in assay [2], 0.312 nM; in assay [3], 0.19 nM; in assay [5] it was 1.51 nM; in assay [6], 2.01 nM; in assay [7], 0.4 nM. The molecule also displayed an EC50 in assay [8] of 44.5 nM. In addition, the binding result in assay [4] is listed as “no binding”.
